This is an account of results in patent US20110313028A1 (VIRGINIA COMMONWEALTH UNIVERSITY, published 2011).

Assay [1] has as its target T1, c-Fos (UniProt P01100 1-380, limits assumed).
T1 construct: Tested in 'similar assays'; The construct is not described
The assay can be described thus: similar assays (two-hybrid / co-immunoprecipitation; not specified).

The target of assay [2] is T2, ATF-2 (UniProt P15336 1-505, limits assumed).
T2 construct: Tested in 'similar assays'; The construct is not described
T2 sequence (looked up): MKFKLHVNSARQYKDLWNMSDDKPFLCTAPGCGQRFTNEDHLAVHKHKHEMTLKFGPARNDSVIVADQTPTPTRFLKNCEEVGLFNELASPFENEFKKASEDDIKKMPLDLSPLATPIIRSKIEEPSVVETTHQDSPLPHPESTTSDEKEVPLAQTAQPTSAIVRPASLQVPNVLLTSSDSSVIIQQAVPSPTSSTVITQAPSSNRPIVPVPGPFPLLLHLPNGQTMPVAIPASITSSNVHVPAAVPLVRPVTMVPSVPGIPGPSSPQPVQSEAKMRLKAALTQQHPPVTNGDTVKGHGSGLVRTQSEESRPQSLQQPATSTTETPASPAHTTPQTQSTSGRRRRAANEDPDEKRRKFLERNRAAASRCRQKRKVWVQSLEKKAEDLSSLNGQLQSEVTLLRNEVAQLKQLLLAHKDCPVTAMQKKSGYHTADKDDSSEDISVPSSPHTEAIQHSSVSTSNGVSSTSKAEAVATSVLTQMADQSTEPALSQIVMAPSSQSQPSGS
The assay is described as above.

T1 sequence (P01100 whole entry): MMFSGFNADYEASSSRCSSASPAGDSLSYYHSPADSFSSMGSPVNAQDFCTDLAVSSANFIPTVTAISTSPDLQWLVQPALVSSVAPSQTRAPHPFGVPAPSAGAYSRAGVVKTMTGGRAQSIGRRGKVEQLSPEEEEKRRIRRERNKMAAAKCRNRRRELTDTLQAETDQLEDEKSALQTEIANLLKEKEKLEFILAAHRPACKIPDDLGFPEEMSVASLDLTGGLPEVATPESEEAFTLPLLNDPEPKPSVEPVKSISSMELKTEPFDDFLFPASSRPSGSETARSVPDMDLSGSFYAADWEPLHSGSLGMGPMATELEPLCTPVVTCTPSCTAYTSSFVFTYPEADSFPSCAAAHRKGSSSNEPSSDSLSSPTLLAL

B1: HA-tagged SARI (Suppressor of AP-1, Regulated by IFN), expressed in HeLa cells from Ad.SARI (other)
chain: MHLCGGNGLLTQTDPKEQQRQLKKQKNRAAAQRSRQKHTDKADALHQQHESLEKDNLALRKEIQSLQAELAWWSRTLHVHERLCPMDCASCSAPGLLGCWDQAEGLLGPGPQGQHGCREQLELFQTPGSCYPAQPLSPGPQPHDSPSLLQCPLPSLSLGPAVVAEPPVQLSPSPLLFASHTGSSLQGSSSKLSALQPSLTAQTAPPQPLELEHPTRGKLGSSPDNPSSALGLARLQSREHKPALSAATWQGLVVDPSPHPLLAFPLLSSAQVHF
notes: also called SARI protein; WT SARI; not shown: HA tag
B1: the binding result in assay [1] and in assay [2] was “no binding” throughout.
